These results are taken from article PMC3335848, “Characterization of Multi-Functional Properties and Conformational Analysis of MutS2 from Thermotoga maritima MSB8” (PLoS ONE, 2012).

For orientation: stoichiometry N means the number of molecules, sites or subunits per partner or assembly.

In data set [1] the target is T1, TmMutS2 (Thermotoga maritima MSB8, UniProt Q9X105 1-757).
T1 sequence: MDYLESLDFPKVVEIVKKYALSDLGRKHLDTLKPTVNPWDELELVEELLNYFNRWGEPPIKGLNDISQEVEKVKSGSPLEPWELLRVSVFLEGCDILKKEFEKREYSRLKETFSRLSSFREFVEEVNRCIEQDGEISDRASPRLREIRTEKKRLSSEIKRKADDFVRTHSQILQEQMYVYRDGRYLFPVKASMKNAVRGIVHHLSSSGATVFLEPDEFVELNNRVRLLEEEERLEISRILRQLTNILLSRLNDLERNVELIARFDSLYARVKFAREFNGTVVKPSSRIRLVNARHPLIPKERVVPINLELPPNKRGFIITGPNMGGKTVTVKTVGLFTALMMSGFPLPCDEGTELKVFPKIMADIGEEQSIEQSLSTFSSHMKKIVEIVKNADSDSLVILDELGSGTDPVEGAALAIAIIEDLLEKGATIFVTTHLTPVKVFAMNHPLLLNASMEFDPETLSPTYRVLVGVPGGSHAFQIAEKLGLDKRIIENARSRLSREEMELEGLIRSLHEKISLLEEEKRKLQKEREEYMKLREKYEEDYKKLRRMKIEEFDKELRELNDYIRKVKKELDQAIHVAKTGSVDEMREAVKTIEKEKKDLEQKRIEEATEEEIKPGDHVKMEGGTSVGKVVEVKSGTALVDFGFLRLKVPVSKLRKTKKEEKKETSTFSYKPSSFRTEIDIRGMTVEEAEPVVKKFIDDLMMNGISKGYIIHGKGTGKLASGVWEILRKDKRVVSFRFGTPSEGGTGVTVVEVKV
The data set is described as follows: EMSA; no ATP; 0-2 uM protein; strongest binding among the DNAs; EMSA: 25 mM Hepes-NaOH pH 7.5, 200 mM NaCl, 0.5 mM EDTA, 37 C, 1 h; DNA 1 uM, TmMutS2 0-2 uM, +/- 1 mM ATP. To be noted: protein: recombinant; tags: His-tag removed with TEV protease (pET-28aTEV); chain copies: 2; label: 5'-32P (EMSA); four-way junction of 4 strands. Background: A gel shift assay detects complexes by their altered migration in electrophoresis.

Data set [2] deals with T1, TmMutS2. In words: EMSA; no ATP; stronger than linear and overhang; EMSA: 25 mM Hepes-NaOH pH 7.5, 200 mM NaCl, 0.5 mM EDTA, 37 C, 1 h; DNA 1 uM, TmMutS2 0-2 uM, +/- 1 mM ATP. Conditions: protein: recombinant; tags: His-tag removed with TEV protease (pET-28aTEV); chain copies: 2; label: 5'-32P; fork; S19[1-37] paired with 3' part of S16, both other arms unpaired.
Data set [3] deals with the molecule itself. In words: AUC; sedimentation velocity, 20°C, 40000 rpm, 24 h, absorbance at 280 nm, C(s) method.

B1: Four-way junction (FWJ, DNA 3) (structured_DNA)
DNA 1: GACGCTGCCGAATCCTACCAGTGCCTTGCTAGGACATCTTTGCCCACCTGCAGGTCACCC
DNA 2: TGGGTGAACCTGCAGGTGGGCAAAGATGTCCTAGCAATGTAATCGTCAAGCTTTATGCCGTT
DNA 3: ATCGATAGTCGGATCCTCTAGACAGCATGTCCTAGCAAGGCACTGGTAGAATTCGGCAGCGT
DNA 4: CAACGGCATAAAGCTTGACGATTACATTGCTAGGACATGCTGTCTAGAGGATCCGACTATCGA
As to B1, the binding result in the data set with TmMutS2 [1] is “binds”.

B2: Flayed (DNA 4, fork) (structured_DNA)
DNA 1: AACGGCATAAAGCTTGACGATTACATTGCTAGGACATGCTGTCTAGAGGATCCGACTATCGA
DNA 2: B1 DNA 2
Regarding B2, the binding result in the data set with TmMutS2 [2] was “binds”.

B3: Thermotoga maritima MutS2 (enzyme, Thermotoga maritima MSB8, UniProt Q9X105 1-757, looked up)
chain: T1 sequence
notes: MutS2 of Thermotoga maritima MSB8, gene amplified from genomic DNA; 89 kDa; residue numbers run to 757; Vector pET-28aTEV; also called TmMutS2; apo-TmMutS2; source: E. coli BL21 (DE3), purified (heat step at 65°C, Ni-NTA, TEV cleavage, Heparin Hitrap HP, Superdex 200 HR)
For the molecule B3, the “stoichiometry N” value in data set [3] came to 2.
